Laboratory results published in patent publication US9289506B2, “Surface binding of nanoparticle based drug delivery to tissue” (Massachusetts Institute of Technology, priority 2013, dated 2016).
Where “and” joins values, the source holds several entries; their conditions need not be identical. Identical values can stand only once.

Legend:
[1] = dilute solution of DI water at pH 5; cited from earlier work
[2] = Competitive binding of FITC-Avidin and unlabeled Avidin in cartilage (binding isotherm fit); design: species or system bovine; conditions: best fit of binding isotherm to FIG. 13 data
Procedure: To test this hypothesis, competitive binding experiments were performed in which 3 mm diameter cartilage disks were equilibrated for 3 days in 300 μl buffer containing a fixed amount of (fluorescently labeled) FITC-Avidin (1 μM) and graded amounts of unlabeled Avidin (0, 10, 76, 100, and 203 μM). The disks were split into half disks to reduce the time needed for equilibration, which was performed in 96 well plates at 37° C. The uptake ratio, RU, was measured and plotted versus the total bath concentration of Avidin (labeled+unlabeled, FIG. 13), where RU is defined as the total concentration of Avidin inside the cartilage (bound (CB) plus free (CF)) per intra-tissue water weight, normalized to the Avidin concentration in the equilibration bath (CBath):
Labeled and unlabeled Avidin were held to partition into the cartilage identically. At very low concentration of the labeled Avidin (≦1 μM), a high uptake of ˜120 was observed. When unlabeled Avidin was added to the bath, both species (labeled and unlabeled) could compete for the same (constant) number of binding sites available in the tissue (site density NT). […] To model the data of FIG. 13, a first-order, bimolecular, reversible reaction was produced to describe binding of Avidin to a single dominant binding species within cartilage. A theoretical model was adopted, (Garcia et al., Arch Biochem Biophys, 2003) previously used for characterizing the binding of soluble insulin like growth factor-1 (IGF-1) to IGF-binding proteins (IGF-BPs) that are uniformly enmeshed and fixed within cartilage matrix. According to this model, the equilibrium molar concentration of free solute (CF), bound solute (CB), intra-tissue binding site density (NT) and the equilibrium dissociation constant (KEQ) are related by the binding isotherm:
[formula] which is similar in form to a Langmuir adsorption isotherm. […]
[formula] […] Thus, K is determined by both steric hindrance and electrostatic (Donnan) interactions. […]

[3] = Net charge of Avidin estimated from reported electrokinetic zeta potential; format: physicochemical; conditions: Grahame equation from zeta potential, spherical shape diameter ~7 nm
Description: The zeta potential of Avidin molecules in dilute solution of DI water at pH 5 has been reported to be 10 mV (Dougherty et al., Langmuir, 2009). Using Grahame Equation of electrokinetics (Grodzinsky et al., New York: Garland Science, 2011) that related zeta potential to particle surface charge density, and assuming that Avidin attains a spherical shape (diameter ˜7 nm), the zeta potential of 10 mV corresponds to an effective net molecular charge of ˜+7.3.

[4] = One-way diffusion of solutes into cartilage half disks in transport chamber, confocal microscopy imaging; format: in vitro ADME, bovine; conditions: normal cartilage
Description: Solute Types: Two types of 15 nm diameter (MW˜300 kDa) Quantum Dots (QD) were used: (i) positively charged, and (ii) charge-neutral; same concentration. Transport of FITC (MW˜300 Da, diam˜0.9 nm) and dextrans (Dex) conjugated with FITC (Sigma Aldrich) of different MW (˜8 kDa, diam˜4.3 nm; ˜40 kDa, diam˜10 nm) were also investigated.
Transport Studies: A special PMMA transparent transport chamber was designed to allow diffusion of solutes into only one side (superficial zone) of the cartilage disk. The chamber was treated with Casein to block non-specific binding of solutes to chamber surfaces. The equilibrated cartilage disks were then cut into halves and placed in the middle of the ‘slot chambers’ of the fixture. The chamber side facing the superficial zone was filled with ˜45 μl of solute-PBS solution; the other side was filled with 1×PBS alone. […]
Using a scalpel, a slice (100-200 μm thick) was then cut from the center of each disk (FIG. 1B). […] Appropriate filters were chosen to eliminate auto-fluorescence of cartilage at the settings used for imaging. […] To ensure proper image comparison, solute concentrations were chosen such that the FITC concentration in each solution was identical, thereby giving equal fluorescence intensities.

Avidin: positively charged globular glycosylated tetrameric protein, pI 10.5, 66 kDa, diameter ~7 nm (Invitrogen); SEQ ID NO 1
zeta potential [1]: 10 mV | equilibrium partition coefficient K [2]: ~6 | Kd ([2]; read-out: equilibrium dissociation constant KEQ): 150 µM and ~150 µM | effective net molecular charge [3]: ~+7.3 | time to penetrate the full thickness (1 mm) of the cartilage explant [4]: ≤ 24 h
